Biological target: GST-SPAK 63–390 (mouse, UniProt Q9Z1W9 63-390)
Assay: pull-down

B1: His6-SPAK 63–390 (domain or fragment)
chain: not shown
**Q.** Does B1 bind?
**A.** Result: binds
